Experimental data: patent publication US7977317B2, “Compositions and methods for modulating blood-brain barrier transport” (Raptor Pharmaceutical Inc., priority 2001, dated 2011)

Tested on: BBCEC monolayers
Experiment: Transcytosis across BBCEC monolayers (in vitro BBB model)
Assay type: cell-based, bovine
Description: FIG. 10 assesses the ability of several agents to interfere with p97 transyctosis. FIG. 10a, transcytosis of I125-P97 was compared in the presence of cold p97 (5 micromolar), Lf (5 micromolar), and Tf (5 micromolar). […] FIG. 10c, RAP, a known poly-peptide inhibitor of the LDL-Receptor family was applied to the cells (25 micrograms/ml).
FIG. 11 examines the accumulation and transcytosis of p97. FIG. 11a, of [^125I]-p97, [^125I]-BSA and [^125I]-holo-transferrin one hour after i.v. injection. The radioactivity in brain was compared between the three compounds. (n=3); FIG. 11b, Accumulation of p97 and transferrin into the mouse brain parenchyma. In situ brain perfusion was performed with human [^125I]-p97 or [^125I]-holo-transferrin at a final concentration of 10 nM via a catheter inserted in the right common carotid artery. The volume of distribution (VD) of [^125I]-proteins were obtained in the whole brain homogenate (white bars), in brain capillaries (solid bars) and in brain parenchyma (hatched bars) after isolation of the right hemisphere and capillary depletion. Results were obtained for p97 (n=10) and for holo-transferrin (n=6); FIG. 11c, Transcytosis of p97 across BBCEC monolayers. Transcytosis experiments were performed 37° C. (open circles) and 4° C. (closed circles) with BBCEC monolayers. [^125I]-p97 (1 mg/ml) was added to the upper side of the cell-covered filter. One representative experiment is shown (n=4); FIG. 11d, Preferential transport of p97 across the BBCEC monolayers. Apical-to-basal and basal-to-apical transport of [^125I]-p97 (25 nM) was measured for 2 hrs at 37° C. At the end of the experiment, [^125I]-p97 was assessed in the lower or upper chambers of each well by TCA precipitation (n=4).
FIG. 13 illustrates the transcytosis and accumulation of p97 and transferrin in BBCEC monolayers. FIG. 13a, Transcytosis experiments were performed at 37° C. (solid bars) or 4° C. (white bars). [^125I]-p97 or bovine [^125I]-holo-transferrin (1 mg/ml) was added to the upper side of the cell-covered filter. At the end of the experiment, radiolabelled proteins were measured in the lower chamber of each well by TCA precipitation (n=4). Controls were also performed at 37° C. with denatured [^125I]-p97 or bovine [^125I]-holo-transferrin boiled for 30 min (grey bars) (n=2); FIG. 13b, Biospecific interaction analysis was performed with native or boiled p97 for the indicated times. MAb L235 (5 μg) was immobilized on a sensor chip (SM5) using standard procedures incorporating NHS, EDC and ethanolamine. Native and boiled p97 (5 to 30 min) diluted at 1 mg/ml in Ringer/Hepes was cooled and injected into the BIAcore. The surface plasmon resonance response obtained for native p97 and boiled p97 was plotted (in relative units (RU)) as a function of time; FIG. 13c, The accumulation of both proteins into BBEC cells were also measured. Briefly, after incubation at 37° C. (solid bars) or 4° C. (white bars) with either [^125I]-protein, cells were washed four times with cold PBS. Accumulation of both denatured proteins (grey bars) was also measured at 37° C. Filters were then removed, and the radioactivity associated with the cells was quantified (n=3).
FIG. 14 illustrates the stability of p97 and integrity of the BBCEC monolayers following p97 transcytosis. FIG. 14a, Transcytosis experiments were performed at 37° C. and 4° C. by adding p97 (1 mg/ml) to the upper compartment. At the end of the experiment, 50 μl from each lower chamber was used for SDS-polyacrylamide gel electrophoresis. After electrophoresis, the gels were stained with Coomassie Blue. A standard curve was also made with known amounts of recombinant p97 (0-2 μg); FIG. 14b. The gels were dried and scanned to quantify the amount of intact p97 that crossed the BBCEC monolayers at 37° C. and 4° C. (n=3); FIG. 14c, Effect of p97 on sucrose permeability of BBCE cell monolayers co-cultured with astrocytes. […]

transferrin: transferrin (Tf), iron-binding serum protein used as comparator and competitor
Effect of heat-denaturation on passage through BBCEC monolayers (boiled 30 min, 37° C. (FIG. 13a)): reduced the passage | Effect on transcytosis of 125I-p97 (competitor 5 micromolar (FIG. 10a, 10b)): only the cold p97 successfully reduced
